Results on one substance are retold here after PMC10643122.

In test [1] the target is full-length LRRK1 (Leucine Rich Repeat Kinase 1) (human) (UniProt Q38SD2). Kind of test: cryo-EM structure; 5.2 μM LRRK1(FL) with GDP, 0.06% brij-35 added directly before vitrification; C2 symmetry.
The target is the same in test [2]. Kind of test: mass photometry; full-length LRRK1 diluted to 100 nM in 20 mM HEPES pH 7.4, 150 mM NaCl, 2.5 mM MgCl2, 1 mM GDP, 0.5 mM TCEP, 0.5% glycerol; 30 min at room temperature; Refeyn TwoMP; Gaussian fits of the histograms, law of mass action; dimer to monomers; estimated Kd.

Turning to “full-length LRRK1 (Leucine Rich Repeat Kinase 1), Q38SD2-1 1-2015”, in test [1], the stoichiometry N is 2. In addition, in test [2], the dissociation constant Kd is 600 nM.
